Assay results: the supplement of paper PMC9112550, “Optimization of the antimicrobial peptide Bac7 by deep mutational scanning” (BMC Biology, 2022)

System: Escherichia coli TOP10
Experiment: shrunken log2 fold change of peptide-encoding DNA abundance (4.5 h post-induction vs induction); higher = less antimicrobial activity (less host growth inhibition)
Details: time post-induction: 4.5 h; library: site-saturation at positions 5, 18, 19, 20
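Also: peptides expressed intracellularly from a pBAD plasmid library in pooled LB shake-flask culture, induced with 0.3% L-arabinose, DNA abundance read by NGS, three biological replicates, DESeq2 with apeglm shrinkage.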

Row | Sequence | shrunken log2 fold change
1 | RRIRCRPPRLPRPRPRPHDMPRP | -0.234
2 | RRIRCRPPRLPRPRPRPHDNPRP | -0.356
3 | RRIRCRPPRLPRPRPRPHEDPRP | -0.157
4 | RRIRCRPPRLPRPRPRPHEGPRP | -0.172
5 | RRIRCRPPRLPRPRPRPHEPPRP | -0.00114
6 | RRIRCRPPRLPRPRPRPHEWPRP | 0.00702
7 | RRIRCRPPRLPRPRPRPHFAPRP | 0.0672
8 | RRIRCRPPRLPRPRPRPHFLPRP | -0.657
9 | RRIRCRPPRLPRPRPRPHFMPRP | -0.774
10 | RRIRCRPPRLPRPRPRPHHVPRP | 0.0159
11 | RRIRCRPPRLPRPRPRPHIIPRP | -0.11
12 | RRIRCRPPRLPRPRPRPHIYPRP | -0.954
13 | RRIRCRPPRLPRPRPRPHKNPRP | -0.418
14 | RRIRCRPPRLPRPRPRPHLLPRP | -0.375
15 | RRIRCRPPRLPRPRPRPHNAPRP | -0.171
16 | RRIRCRPPRLPRPRPRPHNRPRP | -0.512
17 | RRIRCRPPRLPRPRPRPHPTPRP | -0.0382
18 | RRIRCRPPRLPRPRPRPHQQPRP | 0.14
19 | RRIRCRPPRLPRPRPRPHRMPRP | -0.401
20 | RRIRCRPPRLPRPRPRPHSAPRP | 0.0702
21 | RRIRCRPPRLPRPRPRPHSRPRP | 0.0572
22 | RRIRCRPPRLPRPRPRPHTKPRP | -0.309
23 | RRIRCRPPRLPRPRPRPHVWPRP | -0.185
24 | RRIRCRPPRLPRPRPRPHWPPRP | 0.149
25 | RRIRCRPPRLPRPRPRPHYLPRP | -0.574

Row | Sequence | shrunken log2 fold change
26 | RRIRCRPPRLPRPRPRPHYTPRP | -0.311
27 | RRIRCRPPRLPRPRPRPHYVPRP | -0.78
28 | RRIRCRPPRLPRPRPRPHYWPRP | -0.783
29 | RRIRCRPPRLPRPRPRPIAKPRP | 0.0637
30 | RRIRCRPPRLPRPRPRPIAMPRP | -0.0964
31 | RRIRCRPPRLPRPRPRPIAPPRP | 0.509
32 | RRIRCRPPRLPRPRPRPIATPRP | 0.366
33 | RRIRCRPPRLPRPRPRPICKPRP | 0.0601
34 | RRIRCRPPRLPRPRPRPIDPPRP | -0.18
35 | RRIRCRPPRLPRPRPRPIDTPRP | -0.385
36 | RRIRCRPPRLPRPRPRPIEKPRP | -0.0167
37 | RRIRCRPPRLPRPRPRPILMPRP | -0.796
38 | RRIRCRPPRLPRPRPRPILWPRP | 0.0346
39 | RRIRCRPPRLPRPRPRPINCPRP | -0.0582
40 | RRIRCRPPRLPRPRPRPIPTPRP | -0.0788
41 | RRIRCRPPRLPRPRPRPIQDPRP | -0.49
42 | RRIRCRPPRLPRPRPRPIQMPRP | -0.0491
43 | RRIRCRPPRLPRPRPRPIRGPRP | 0.0532
44 | RRIRCRPPRLPRPRPRPIRNPRP | -0.182
45 | RRIRCRPPRLPRPRPRPISFPRP | -0.113
46 | RRIRCRPPRLPRPRPRPISYPRP | -0.485
47 | RRIRCRPPRLPRPRPRPITFPRP | -0.167
48 | RRIRCRPPRLPRPRPRPIVGPRP | -0.477
49 | RRIRCRPPRLPRPRPRPIVVPRP | -0.34
50 | RRIRCRPPRLPRPRPRPIYWPRP | -0.815

Row | Sequence | shrunken log2 fold change
51 | RRIRCRPPRLPRPRPRPKASPRP | -0.00163
52 | RRIRCRPPRLPRPRPRPKCMPRP | -0.483
53 | RRIRCRPPRLPRPRPRPKFHPRP | -0.498
54 | RRIRCRPPRLPRPRPRPKHIPRP | -0.443
55 | RRIRCRPPRLPRPRPRPKIKPRP | -0.287
56 | RRIRCRPPRLPRPRPRPKKAPRP | -0.235
57 | RRIRCRPPRLPRPRPRPKKPPRP | -0.0369
58 | RRIRCRPPRLPRPRPRPKKWPRP | 0.00275
59 | RRIRCRPPRLPRPRPRPKLHPRP | -0.113
60 | RRIRCRPPRLPRPRPRPKLTPRP | -0.223
61 | RRIRCRPPRLPRPRPRPKMFPRP | -0.265
62 | RRIRCRPPRLPRPRPRPKMVPRP | -0.0546
63 | RRIRCRPPRLPRPRPRPKNDPRP | -0.048
64 | RRIRCRPPRLPRPRPRPKNFPRP | -0.555
65 | RRIRCRPPRLPRPRPRPKNVPRP | -0.258
66 | RRIRCRPPRLPRPRPRPKQCPRP | 0.269
67 | RRIRCRPPRLPRPRPRPKRFPRP | 0.322
68 | RRIRCRPPRLPRPRPRPKRKPRP | 0.157
69 | RRIRCRPPRLPRPRPRPKSHPRP | -0.117
70 | RRIRCRPPRLPRPRPRPKTHPRP | -0.115
71 | RRIRCRPPRLPRPRPRPKTRPRP | 0.305
72 | RRIRCRPPRLPRPRPRPKVTPRP | -0.455
73 | RRIRCRPPRLPRPRPRPKWEPRP | 0.173
74 | RRIRCRPPRLPRPRPRPKWTPRP | -0.0568
75 | RRIRCRPPRLPRPRPRPKYDPRP | -0.605

Row | Sequence | shrunken log2 fold change
76 | RRIRCRPPRLPRPRPRPKYQPRP | -0.0383
77 | RRIRCRPPRLPRPRPRPKYRPRP | -0.326
78 | RRIRCRPPRLPRPRPRPLCGPRP | -0.0842
79 | RRIRCRPPRLPRPRPRPLCRPRP | 0.0269
80 | RRIRCRPPRLPRPRPRPLDSPRP | -0.179
81 | RRIRCRPPRLPRPRPRPLDTPRP | -0.153
82 | RRIRCRPPRLPRPRPRPLDYPRP | -0.75
83 | RRIRCRPPRLPRPRPRPLEFPRP | -0.245
84 | RRIRCRPPRLPRPRPRPLETPRP | -0.012
85 | RRIRCRPPRLPRPRPRPLFMPRP | -0.368
86 | RRIRCRPPRLPRPRPRPLGFPRP | -0.116
87 | RRIRCRPPRLPRPRPRPLGGPRP | 0.281
88 | RRIRCRPPRLPRPRPRPLGHPRP | -0.372
89 | RRIRCRPPRLPRPRPRPLHMPRP | -0.295
90 | RRIRCRPPRLPRPRPRPLIMPRP | -0.689
91 | RRIRCRPPRLPRPRPRPLINPRP | -0.621
92 | RRIRCRPPRLPRPRPRPLKAPRP | -0.249
93 | RRIRCRPPRLPRPRPRPLKVPRP | -0.284
94 | RRIRCRPPRLPRPRPRPLLGPRP | 0.201
95 | RRIRCRPPRLPRPRPRPLMGPRP | -0.214
96 | RRIRCRPPRLPRPRPRPLMHPRP | -0.264
97 | RRIRCRPPRLPRPRPRPLNGPRP | -0.444
98 | RRIRCRPPRLPRPRPRPLNMPRP | -0.646
99 | RRIRCRPPRLPRPRPRPLNNPRP | -0.694
100 | RRIRCRPPRLPRPRPRPLPAPRP | 0.574

Row | Sequence | shrunken log2 fold change
101 | RRIRCRPPRLPRPRPRPLQFPRP | -0.0752
102 | RRIRCRPPRLPRPRPRPLRPPRP | 0.815
103 | RRIRCRPPRLPRPRPRPLRTPRP | 1.01
104 | RRIRCRPPRLPRPRPRPLSCPRP | -0.184
105 | RRIRCRPPRLPRPRPRPLTCPRP | -0.184
106 | RRIRCRPPRLPRPRPRPLVNPRP | -0.841
107 | RRIRCRPPRLPRPRPRPLVPPRP | -0.202
108 | RRIRCRPPRLPRPRPRPLVSPRP | -0.245
109 | RRIRCRPPRLPRPRPRPMCPPRP | -0.312
110 | RRIRCRPPRLPRPRPRPMDHPRP | -0.904
111 | RRIRCRPPRLPRPRPRPMDSPRP | -0.142
112 | RRIRCRPPRLPRPRPRPMECPRP | -0.00088
113 | RRIRCRPPRLPRPRPRPMEVPRP | 0.015
114 | RRIRCRPPRLPRPRPRPMGEPRP | 0.0249
115 | RRIRCRPPRLPRPRPRPMGLPRP | -0.0216
116 | RRIRCRPPRLPRPRPRPMIFPRP | -0.369
117 | RRIRCRPPRLPRPRPRPMINPRP | -0.53
118 | RRIRCRPPRLPRPRPRPMKFPRP | -0.0717
119 | RRIRCRPPRLPRPRPRPMKRPRP | -0.176
120 | RRIRCRPPRLPRPRPRPMKSPRP | -0.1
121 | RRIRCRPPRLPRPRPRPMLCPRP | 0.0786
122 | RRIRCRPPRLPRPRPRPMLYPRP | -0.189
123 | RRIRCRPPRLPRPRPRPMMLPRP | -0.117
124 | RRIRCRPPRLPRPRPRPMMMPRP | 2.91
125 | RRIRCRPPRLPRPRPRPMPKPRP | 0.0972

Row | Sequence | shrunken log2 fold change
126 | RRIRCRPPRLPRPRPRPMQCPRP | 0.0136
127 | RRIRCRPPRLPRPRPRPMQKPRP | 0.0364
128 | RRIRCRPPRLPRPRPRPMQLPRP | -0.239
129 | RRIRCRPPRLPRPRPRPMRSPRP | 0.211
130 | RRIRCRPPRLPRPRPRPMSFPRP | -0.29
131 | RRIRCRPPRLPRPRPRPMSKPRP | -0.5
132 | RRIRCRPPRLPRPRPRPMTPPRP | 0.377
133 | RRIRCRPPRLPRPRPRPMTQPRP | -0.188
134 | RRIRCRPPRLPRPRPRPMTYPRP | -0.185
135 | RRIRCRPPRLPRPRPRPMVRPRP | 0.158
136 | RRIRCRPPRLPRPRPRPMWLPRP | -0.235
137 | RRIRCRPPRLPRPRPRPNCCPRP | 0.188
138 | RRIRCRPPRLPRPRPRPNCMPRP | -0.369
139 | RRIRCRPPRLPRPRPRPNCQPRP | -0.134
140 | RRIRCRPPRLPRPRPRPNEDPRP | 0.0261
141 | RRIRCRPPRLPRPRPRPNEIPRP | -0.0995
142 | RRIRCRPPRLPRPRPRPNFPPRP | 0.346
143 | RRIRCRPPRLPRPRPRPNGQPRP | -0.0579
144 | RRIRCRPPRLPRPRPRPNGSPRP | -0.398
145 | RRIRCRPPRLPRPRPRPNGTPRP | -0.0476
146 | RRIRCRPPRLPRPRPRPNHFPRP | -0.484
147 | RRIRCRPPRLPRPRPRPNHTPRP | -0.536
148 | RRIRCRPPRLPRPRPRPNIAPRP | -0.275
149 | RRIRCRPPRLPRPRPRPNIRPRP | -0.517
150 | RRIRCRPPRLPRPRPRPNKAPRP | -0.116
